Data reported in patent US20120077957A1 (PALATIN TECHNOLOGIES, published 2012).
Like-named read-outs stand apart in the source and are kept apart here. Values belong to the binder of their own block, whether it stands above or below them. Numbered stars: 1 amine (or outer) side, 2 acyl side, 3 side chain; on linkers, the order of the positions; unused ones are H or OH. Bridge positions count the residues as written; N and C are the ends. Square brackets hold non-standard residues; d marks the D form. * marks the point of attachment. Pro(trans-4-NH2) = O=C([C@@H]1C[C@@H](N[*:3])CN1[*:1])[*:2]; Met(O2) = CS(=O)(=O)CC[C@H](N)C(=O)O; Hyp = O=C(O)[C@@H]1C[C@@H](O)CN1; Cit = NC(=O)NCCC[C@H](N)C(=O)O; Orn = NCCC[C@H](N)C(=O)O; Dab = NCC[C@H](N)C(=O)O; NHcPr = C1CC1N*

Key:
[1] = molecular target: T1, human melanocortin-4 receptor (recombinant hMC4-R) (human, UniProt P32245 1-332); assay: cell-based or functional assay
T1 sequence (P32245 whole entry): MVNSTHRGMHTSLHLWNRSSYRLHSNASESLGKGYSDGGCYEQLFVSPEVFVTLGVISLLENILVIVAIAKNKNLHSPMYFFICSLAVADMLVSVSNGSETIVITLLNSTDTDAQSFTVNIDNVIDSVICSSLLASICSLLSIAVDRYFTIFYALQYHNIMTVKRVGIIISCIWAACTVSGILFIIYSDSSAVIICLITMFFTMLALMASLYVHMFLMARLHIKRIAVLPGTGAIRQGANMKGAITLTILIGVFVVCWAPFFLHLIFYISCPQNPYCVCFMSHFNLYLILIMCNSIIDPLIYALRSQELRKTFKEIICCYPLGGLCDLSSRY

[2] = molecular target: T1, human melanocortin-4 receptor …; assay: cell-based or functional assay; remark: listed apart in the source
[3] = molecular target: T1, human melanocortin-4 receptor …; assay: competition with labelled NDP-α-MSH ([I125] or Eu), hMC4-R HEK-293 membranes
Experimental: After incubation for 60 minutes at 37° C., the assay mixture was filtered and the membranes washed three times with ice-cold buffer. Filters were dried and counted in a gamma counter for bound radioactivity. […] Maximal specific binding (100%) was defined as the difference in radioactivity (cpm) bound to cell membranes in the absence and presence of 1 μM NDP-α-MSH. […] Ki values for test peptides of the present invention were determined using Graph-Pad Prism® curve-fitting software.
After incubation for 90 minutes at 37° C., the reaction was stopped by filtration over AcroWell 96-well filter plates (Pall Life Sciences). The filter plates were washed 4 times with 200 μL of ice-cold phosphate-buffered saline. DELFIA Enhancement solution (PerkinElmer Life Sciences) was added to each well. The plates were incubated on a shaker for 15 minutes and read at 340 nm excitation and 615 nm emission wavelengths. Each assay was conducted in duplicate and mean values were utilized. Ki values were determined by curve-fitting with Graph-Pad Prism® software using a one-site fixed-slope competition binding model.

B1: Asp...Lys analog of peptide No. 8: Ac-Arg-cyclo(Asp-Orn-D-Phe-Arg-Trp-Lys)-NH2 (peptide)
peptide: Ac-RD[Orn][dF]RWK-NH2
modifications: lactam 2-7
Ec50 (nM), cAMP [1]: 0.8 nM | Emax (%), cAMP [1]: 79%

B4: Asp...Lys analog of peptides No. 3 and No. 37: Ac-Arg-cyclo(Asp-His-D-Phe-Arg-Trp-Lys)-OH (peptide)
peptide: Ac-RDH[dF]RWK-OH
modifications: lactam 2-7
Emax (%), cAMP [1]: 91% | Emax (%), cAMP [2]: 91%

B5: Asp...Lys analog of peptide No. 16: Ac-Arg-cyclo(Asp-Lys-D-Phe-Arg-Trp-Lys)-NH2 (peptide)
peptide: Ac-RDK[dF]RWK-NH2
modifications: lactam 2-7
notes: also called Peptide Structure (Asp...Lys) in the row of No. 16
Emax (%), cAMP [1]: 97% | Ki [3]: 30 nM

B6: Asp...Lys analog of peptide No. 10: Ac-Arg-cyclo(Asp-Arg-D-Phe-Arg-Trp-Lys)-NH2 (peptide)
peptide: Ac-RDR[dF]RWK-NH2
modifications: lactam 2-7
Emax (%), cAMP [1]: 68%

B7: Asp...Lys analog of peptide No. 11: Ac-Arg-cyclo(Asp-Gln-D-Phe-Arg-Trp-Lys)-OH (peptide)
peptide: Ac-RDQ[dF]RWK-OH
modifications: lactam 2-7
notes: also called Peptide Structure (Asp...Lys) in the row of No. 11
Ec50 (nM), cAMP [1]: 19 nM | Emax (%), cAMP [1]: 80% | Ki [3]: 115 nM

B9: Asp...Lys analog of peptide No. 32: Ac-Arg-cyclo(Asp-Pro(4R-NH2)-D-Phe-Arg-Trp-Lys)-NH2 (peptide)
peptide: Ac-RD[Pro(trans-4-NH2)][dF]RWK-NH2
modifications: lactam 2-7
notes: also called Peptide Structure (Asp...Lys) in the row of No. 32
Emax (%), cAMP [1]: 61% | Ki [3]: 5 nM

B10: Asp...Lys analog of peptide No. 9: Ac-Arg-cyclo(Asp-Arg-D-Phe-Arg-Trp-Lys)-OH (peptide)
peptide: Ac-RDR[dF]RWK-OH
modifications: lactam 2-7
Emax (%), cAMP [1]: 75%

B11: Asp...Lys analog of peptide No. 20: Ac-Arg-cyclo(Asp-Asn-D-Phe-Arg-Trp-Lys)-OH (peptide)
peptide: Ac-RDN[dF]RWK-OH
modifications: lactam 2-7
notes: also called Peptide Structure (Asp...Lys) in the row of No. 20
Ec50 (nM), cAMP [1]: 81 nM | Emax (%), cAMP [1]: 73% | Ki [3]: 100 nM

B12: Asp...Lys analog of peptide No. 13: Ac-Arg-cyclo(Asp-Met(O2)-D-Phe-Arg-Trp-Lys)-NH2 (peptide)
peptide: Ac-RD[Met(O2)][dF]RWK-NH2
modifications: lactam 2-7
notes: also called Peptide Structure (Asp...Lys) in the row of No. 13
Ec50 (nM), cAMP [1]: 35 nM | Emax (%), cAMP [1]: 29% | Ki [3]: 7 nM

B13: Asp...Lys analog of peptide No. 14: Ac-Arg-cyclo(Asp-Hyp-D-Phe-Arg-Trp-Lys)-NH2 (peptide)
peptide: Ac-RD[Hyp][dF]RWK-NH2
modifications: lactam 2-7
notes: also called Peptide Structure (Asp...Lys) in the row of No. 14
Ec50 (nM), cAMP [1]: 27 nM | Emax (%), cAMP [1]: 39% | Ki [3]: 4 nM

B14: Asp...Lys analog of peptide No. 19: Ac-Arg-cyclo(Asp-Gln-D-Phe-Arg-Trp-Lys)-NH-cycProp (peptide)
peptide: Ac-RDQ[dF]RWK-NHcPr
modifications: lactam 2-7
notes: also called Peptide Structure (Asp...Lys) in the row of No. 19
Ec50 (nM), cAMP [1]: 9 nM | Emax (%), cAMP [1]: 79% | Ki [3]: 64 nM

B17: Asp...Lys analog of peptide No. 7: Ac-Arg-cyclo(Asp-Orn-D-Phe-Arg-Trp-Lys)-OH (peptide)
peptide: Ac-RD[Orn][dF]RWK-OH
modifications: lactam 2-7
Ec50 (nM), cAMP [1]: 12 nM | Emax (%), cAMP [1]: 84%

B18: Asp...Lys analog of peptides No. 4 and No. 38: Ac-Arg-cyclo(Asp-His-D-Phe-Arg-Trp-Lys)-NH2 (peptide)
peptide: Ac-RDH[dF]RWK-NH2
modifications: lactam 2-7
Emax (%), cAMP [1]: 83% | Emax (%), cAMP [2]: 83%

B19: Asp...Lys analog of peptide No. 33: Ac-Arg-cyclo(Asp-Orn(Acetyl)-D-Phe-Arg-Trp-Lys)-NH2 (peptide)
peptide: Ac-RD[Orn](Ac)[dF]RWK-NH2
modifications: lactam 2-7
Ec50 (nM), cAMP [1]: 532 nM | Emax (%), cAMP [1]: 62%

The remaining lines, values ahead:

Emax (%), cAMP [2]: 89%
B2: Peptide No. 45: Ac-D-Arg-cyclo(Orn-Gln-D-Phe-Arg-Trp-Glu)-NH2 (peptide)
peptide: Ac-[dR][Orn]Q[dF]RWE-NH2
modifications: lactam 2-7

Emax (%), cAMP [1]: 94%
B3: Peptide No. 5: Ac-Arg-cyclo(Glu-Dab-D-Phe-Arg-Trp-Orn)-OH (peptide)
peptide: Ac-RE[Dab][dF]RW[Orn]-OH
modifications: lactam 2-7

Ec50 (nM), cAMP [1]: 17 nM | Emax (%), cAMP [1]: 85% | Ec50 (nM), cAMP [2]: 17 nM | Emax (%), cAMP [2]: 85%
B8: Asp...Lys analog of peptides No. 12 and No. 44: Ac-Arg-cyclo(Asp-Gln-D-Phe-Arg-Trp-Lys)-NH2 (peptide)
peptide: Ac-RDQ[dF]RWK-NH2
modifications: lactam 2-7

Ec50 (nM), cAMP [1]: 0.3 nM | Emax (%), cAMP [1]: 91% | Ec50 (nM), cAMP [2]: 0.3 nM | Emax (%), cAMP [2]: 91%
B15: Asp...Lys analog of peptides No. 6 and No. 43: Ac-Arg-cyclo(Asp-Dab-D-Phe-Arg-Trp-Lys)-NH2 (peptide)
peptide: Ac-RD[Dab][dF]RWK-NH2
modifications: lactam 2-7

Emax (%), cAMP [1]: 75%
B16: Peptide No. 18: Ac-Arg-cyclo(Glu-Dab(Acetyl)-D-Phe-Arg-Trp-Orn)-NH2 (peptide)
peptide: Ac-RE[Dab](Ac)[dF]RW[Orn]-NH2
modifications: lactam 2-7

Ec50 (nM), cAMP [1]: 4 nM | Emax (%), cAMP [1]: 91% | Ec50 (nM), cAMP [2]: 4 nM | Emax (%), cAMP [2]: 91%
B20: Asp...Lys analog of peptides No. 5 and No. 42: Ac-Arg-cyclo(Asp-Dab-D-Phe-Arg-Trp-Lys)-OH (peptide)
peptide: Ac-RD[Dab][dF]RWK-OH
modifications: lactam 2-7

Emax (%), cAMP [1]: 87%
B21: Peptide No. 15: Ac-Arg-cyclo(Glu-Cit-D-Phe-Arg-Trp-Orn)-NH2 (peptide)
peptide: Ac-RE[Cit][dF]RW[Orn]-NH2
modifications: lactam 2-7

Ec50 (nM), cAMP [1]: 0.5 nM | Emax (%), cAMP [1]: 97%
B22: Peptide No. 1: Ac-Nle-cyclo(Glu-His-D-Phe-Arg-Trp-Orn)-OH (peptide)
peptide: XEHFRWX
modifications: N-terminal acetyl; Nle at 1; D-Phe at 4; Orn at 7; side-chain lactam Glu2-Orn7; C-terminal -OH
